How the values were obtained:
[1] = target: T1, NMDA receptor NR2A subunit (rat (endogenous in hippocampus), UniProt Q00959 23-1464); experiment: co-IP; rat hippocampal tissue lysed in RIPA buffer; equal amounts of total protein precipitated with the appropriate primary antibodies and protein G sepharose at 4 °C overnight; Western blot; normal, chronic epileptic, and control siRNA- or PDI siRNA-infused epileptic animals; conditions: partners not purified
T1 construct: NR2A subunit of the N-methyl-D-aspartate receptor, rat, endogenous in the hippocampus; source: endogenous, rat hippocampal tissue lysate (RIPA buffer)

[2] = target: T2, NMDA receptor NR1 subunit (rat (endogenous in hippocampus), UniProt P35439 19-938); experiment: as above; conditions: partners not purified
T2 construct: NR1 subunit of the N-methyl-D-aspartate receptor, rat, endogenous in the hippocampus; source: endogenous, rat hippocampal tissue lysate (RIPA buffer)

T1 sequence (Q00959 23-1464): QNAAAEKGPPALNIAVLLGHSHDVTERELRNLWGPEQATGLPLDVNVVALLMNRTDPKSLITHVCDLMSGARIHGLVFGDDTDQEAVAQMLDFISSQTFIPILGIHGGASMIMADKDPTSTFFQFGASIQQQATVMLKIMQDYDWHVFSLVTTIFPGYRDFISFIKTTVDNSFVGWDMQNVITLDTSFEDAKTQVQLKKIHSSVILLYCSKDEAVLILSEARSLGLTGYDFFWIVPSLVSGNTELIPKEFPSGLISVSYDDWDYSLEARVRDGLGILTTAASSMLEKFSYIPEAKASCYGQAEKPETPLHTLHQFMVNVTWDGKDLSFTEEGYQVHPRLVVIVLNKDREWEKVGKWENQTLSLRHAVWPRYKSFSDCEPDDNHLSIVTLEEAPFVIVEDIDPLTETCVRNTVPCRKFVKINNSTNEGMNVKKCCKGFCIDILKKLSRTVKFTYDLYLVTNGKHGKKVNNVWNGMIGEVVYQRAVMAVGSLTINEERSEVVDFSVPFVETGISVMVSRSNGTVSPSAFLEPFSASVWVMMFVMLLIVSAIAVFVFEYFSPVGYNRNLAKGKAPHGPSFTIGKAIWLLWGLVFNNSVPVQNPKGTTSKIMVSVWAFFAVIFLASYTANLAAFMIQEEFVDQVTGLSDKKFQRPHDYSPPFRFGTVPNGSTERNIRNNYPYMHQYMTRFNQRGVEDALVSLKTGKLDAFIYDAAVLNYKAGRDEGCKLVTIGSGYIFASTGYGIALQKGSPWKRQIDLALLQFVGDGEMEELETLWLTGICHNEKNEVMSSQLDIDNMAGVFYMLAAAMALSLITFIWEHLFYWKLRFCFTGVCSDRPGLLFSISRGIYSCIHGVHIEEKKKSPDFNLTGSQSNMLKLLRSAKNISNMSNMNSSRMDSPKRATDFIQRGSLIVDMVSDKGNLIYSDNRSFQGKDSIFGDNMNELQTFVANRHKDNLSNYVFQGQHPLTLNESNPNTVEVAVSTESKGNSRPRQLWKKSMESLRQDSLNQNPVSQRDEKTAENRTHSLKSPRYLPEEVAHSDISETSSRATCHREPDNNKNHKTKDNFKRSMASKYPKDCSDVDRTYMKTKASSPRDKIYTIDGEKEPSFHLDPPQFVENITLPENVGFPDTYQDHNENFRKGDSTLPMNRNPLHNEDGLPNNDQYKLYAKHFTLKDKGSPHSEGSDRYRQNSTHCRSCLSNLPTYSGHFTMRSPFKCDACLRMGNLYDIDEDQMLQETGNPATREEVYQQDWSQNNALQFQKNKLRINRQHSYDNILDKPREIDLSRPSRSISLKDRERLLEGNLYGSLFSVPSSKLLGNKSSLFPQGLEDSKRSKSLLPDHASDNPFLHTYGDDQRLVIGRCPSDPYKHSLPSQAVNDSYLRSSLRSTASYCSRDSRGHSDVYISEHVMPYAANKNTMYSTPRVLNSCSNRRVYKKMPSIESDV

B1: Protein disulfide isomerase (enzyme, rat (endogenous in hippocampus), UniProt P04785 20-509, looked up)
chain: DALEEEDNVLVLKKSNFAEALAAHNYLLVEFYAPWCGHCKALAPEYAKAAAKLKAEGSEIRLAKVDATEESDLAQQYGVRGYPTIKFFKNGDTASPKEYTAGREADDIVNWLKKRTGPAATTLSDTAAAESLVDSSEVTVIGFFKDAGSDSAKQFLLAAEAVDDIPFGITSNSDVFSKYQLDKDGVVLFKKFDEGRNNFEGEITKEKLLDFIKHNQLPLVIEFTEQTAPKIFGGEIKTHILLFLPKSVSDYDGKLSNFKKAAEGFKGKILFIFIDSDHTDNQRILEFFGLKKEECPAVRLITLEEEMTKYKPESDELTAEKITQFCHHFLEGKIKPHLMSQELPEDWDKQPVKVLVGKNFEEVAFDEKKNVFVEFYAPWCGHCKQLAPIWDKLGETYKDHENIVIAKMDSTANEVEAVKVHSFPTLKFFPASADRTVIDYNGERTLDGFKKFLESGGQDGAGDNDDLDLEEALEPDMEEDDDQKAVKDEL
notes: Protein disulfide isomerase (PDI), rat, endogenous in the hippocampus of Sprague-Dawley rats; also called PDI; source: endogenous, rat hippocampal tissue lysate (RIPA buffer)
- fold of co-precipitation in epileptic against normal animals [1]: ~2.4 fold
- fold of co-precipitation in epileptic against normal animals [2]: ~2.4 fold
